Measured values from the Immune Epitope Database (IEDB).

How the values were obtained:
HLA-A*01:01 [1] = assay: IEDB peptide-MHC binding, purified MHC/competitive/radioactivity; filed as Kd, often an IC50 or EC50 that approximates it; ≥ and ≤ were set here for values at or beyond the usual limits of such assays
HLA-A*23:01 = assay: as above
HLA-A*26:01 [2] = assay: as above
HLA-A*24:02 = assay: as above
HLA-A*29:02 = assay: as above
HLA-A*30:02 = assay: as above
HLA-A*68:01 = assay: as above; conditions: source organism: Triticum aestivum
HLA-A*33:01 = assay: as above; conditions: source organism: Triticum aestivum
HLA-A*11:01 = assay: as above; conditions: source organism: Triticum aestivum
HLA-A*03:01 = assay: as above; conditions: source organism: Triticum aestivum
HLA-A*31:01 = assay: as above; conditions: source organism: Triticum aestivum
HLA-B*07:02 = assay: as above
HLA-B*44:03 = assay: as above
HLA-A*26:01 [3] = assay: IEDB peptide-MHC binding, purified MHC/direct/fluorescence; filed as Kd, often an IC50 or EC50 that approximates it; ≥ and ≤ were set here for values at or beyond the usual limits of such assays
HLA-B*40:01 = assay: IEDB peptide-MHC binding, purified MHC/competitive/radioactivity; filed as Kd, often an IC50 or EC50 that approximates it; ≥ and ≤ were set here for values at or beyond the usual limits of such assays
HLA-B*51:01 = assay: as above
HLA-A*02:03 = assay: as above
HLA-A*01:01 [4] = assay: IEDB peptide-MHC binding, purified MHC/direct/fluorescence; filed as Kd, often an IC50 or EC50 that approximates it; ≥ and ≤ were set here for values at or beyond the usual limits of such assays; conditions: source organism: Mycobacterium avium 104
HLA-A*02:06 = assay: IEDB peptide-MHC binding, purified MHC/competitive/radioactivity; filed as Kd, often an IC50 or EC50 that approximates it; ≥ and ≤ were set here for values at or beyond the usual limits of such assays; conditions: source organism: SARS coronavirus Tor2
HLA-A*02:02 = assay: as above; conditions: source organism: SARS coronavirus Tor2
[5] = source organism: SARS coronavirus Tor2
[6] = source organism: Triticum aestivum
[7] = source organism: Mammarenavirus guanaritoense
[8] = source organism: Dengue virus 2 Jamaica/1409/1983
[9] = source organism: Dengue virus 3 Martinique/1243/1999
[10] = source organism: Dengue virus 4 Philippines/H241/1956
[11] = source organism: Dengue virus 1 Singapore/S275/1990
[12] = source organism: Mammarenavirus brazilense
[13] = source organism: Dengue virus 1 Brazil/97-11/1997

Sequence	Kd (HLA-A*01:01 [1]; [5])	Kd (HLA-A*23:01; [5])	Kd (HLA-A*26:01 [2]; [5])	Kd (HLA-A*24:02; [5])	Kd (HLA-A*29:02; [5])	Kd (HLA-A*30:02; [5])	also measured
AFEKMVSLL	≥ 78100 nM	8390 nM	≥ 74400 nM	11500 nM	≥ 27400 nM	≥ 81100 nM	–
AFLIGANYL	≥ 73000 nM	≥ 55300 nM	≥ 77900 nM	≥ 45900 nM	≥ 26600 nM	≥ 78900 nM	–
AMCNVYIPPY	–	–	–	–	–	–	Kd (HLA-A*01:01 [1]; [6]): 83.5 nM; Kd (HLA-A*68:01): 921 nM; Kd (HLA-A*23:01; [6]): 11500 nM; Kd (HLA-A*26:01 [2]; [6]): 854 nM; Kd (HLA-A*24:02; [6]): ≥ 28300 nM; Kd (HLA-A*29:02; [6]): 13 nM; Kd (HLA-A*33:01): 2600 nM; Kd (HLA-A*11:01): 136 nM; Kd (HLA-A*03:01): 152 nM; Kd (HLA-A*31:01): 224 nM; Kd (HLA-A*30:02; [6]): 874 nM
AWPLIVTAL	≥ 23000 nM	≥ 49000 nM	17700 nM	≥ 77600 nM	≥ 75000 nM	≥ 37900 nM	–
CLERWMLVA	–	–	–	–	–	–	Kd (HLA-A*01:01 [1]; [7]): 153 nM; Kd (HLA-A*23:01; [7]): ≥ 77700 nM; Kd (HLA-A*26:01 [2]; [7]): ≥ 77900 nM; Kd (HLA-A*24:02; [7]): ≥ 77500 nM; Kd (HLA-A*29:02; [7]): ≥ 78900 nM; Kd (HLA-A*30:02; [7]): 14900 nM
CTLSEQLDY	8.53 nM	≥ 77800 nM	842 nM	≥ 77600 nM	1.05 nM	27.6 nM	–
CYGVSATKL	≥ 78100 nM	12000 nM	≥ 77900 nM	≥ 34300 nM	12200 nM	≥ 81100 nM	–
DPRRCMKPV	–	–	–	–	–	–	Kd (HLA-B*07:02; [8]): 139 nM
EEVQVLALE	–	–	–	–	–	–	Kd (HLA-B*44:03; [8]): 10500 nM
EIARIVEQM	–	–	–	–	–	–	Kd (HLA-A*26:01 [3]; source organism: Mycobacterium tuberculosis variant bovis): 194 nM
ETLPAMCNVY	–	–	–	–	–	–	Kd (HLA-A*01:01 [1]; [6]): 415 nM; Kd (HLA-A*23:01; [6]): ≥ 38800 nM; Kd (HLA-A*26:01 [2]; [6]): 205 nM; Kd (HLA-A*24:02; [6]): ≥ 70300 nM; Kd (HLA-A*29:02; [6]): 4150 nM; Kd (HLA-A*30:02; [6]): 3660 nM
FEEVMRGKFG	–	–	–	–	–	–	Kd (HLA-B*40:01; [9]): 1340 nM
FLFFMQGKGI	–	–	–	–	–	–	Kd (HLA-B*51:01; [10]): ≥ 45200 nM; Kd (HLA-A*02:03; [10]): 3.77 nM
GEVDSFSLGL	–	–	–	–	–	–	Kd (HLA-B*40:01; [11]): 2.13 nM; Kd (HLA-B*44:03; [11]): 158 nM
GYLKPTTFM	≥ 78100 nM	2540 nM	≥ 77900 nM	12200 nM	538 nM	6690 nM	–
ICSSVLKRY	–	–	–	–	–	–	Kd (HLA-A*01:01 [1]; [12]): 470 nM; Kd (HLA-A*23:01; [12]): 14600 nM; Kd (HLA-A*26:01 [2]; [12]): ≥ 77900 nM; Kd (HLA-A*24:02; [12]): 15400 nM; Kd (HLA-A*29:02; [12]): ≥ 50600 nM; Kd (HLA-A*30:02; [12]): 302 nM
IPKNFAGPV	–	–	–	–	–	–	Kd (HLA-B*07:02; [8]): 6.79 nM; Kd (HLA-B*51:01; [8]): 3100 nM
ISMMGFKMNY	422 nM	≥ 31000 nM	5450 nM	≥ 70300 nM	33.4 nM	4.25 nM	–
KELEGILLP	–	–	–	–	–	–	Kd (HLA-B*44:03; source organism: Homo sapiens): 356 nM

Sequence	Kd (HLA-A*01:01 [1]; [5])	Kd (HLA-A*23:01; [5])	Kd (HLA-A*26:01 [2]; [5])	Kd (HLA-A*24:02; [5])	Kd (HLA-A*29:02; [5])	Kd (HLA-A*30:02; [5])	also measured
KPGTSGSPIV	–	–	–	–	–	–	Kd (HLA-B*07:02; [13]): 1080 nM
LALLAAFKV	–	–	–	–	–	–	Kd (HLA-B*51:01; [8]): 812 nM
LEKHGAERL	–	–	–	–	–	–	Kd (HLA-B*40:01; [13]): 23.7 nM
LIDLQELGKY	116 nM	≥ 70000 nM	1020 nM	≥ 70300 nM	2820 nM	38.9 nM	–
LTVTLVWLY	–	–	–	–	–	–	Kd (HLA-A*01:01 [4]): ≥ 20000 nM; Kd (HLA-A*26:01 [3]; source organism: Mycobacterium avium 104): 2.7 nM
NFKHLREFVF	≥ 70400 nM	115 nM	≥ 69700 nM	260 nM	16.4 nM	≥ 78900 nM	–
NGDVVAIDY	1030 nM	≥ 77800 nM	≥ 81500 nM	≥ 77600 nM	825 nM	1800 nM	–
PYPQPQPQY	–	–	–	–	–	–	Kd (HLA-A*01:01 [1]; [6]): ≥ 78100 nM; Kd (HLA-A*23:01; [6]): ≥ 49400 nM; Kd (HLA-A*26:01 [2]; [6]): ≥ 77900 nM; Kd (HLA-A*24:02; [6]): ≥ 237000 nM; Kd (HLA-A*29:02; [6]): 230 nM; Kd (HLA-A*30:02; [6]): 639 nM
QFLYLYALI	2320 nM	0.117 nM	10100 nM	26.1 nM	64.1 nM	≥ 26700 nM	–
QSDTVFDHY	–	–	–	–	–	–	Kd (HLA-A*01:01 [1]; source organism: Variola virus): 9.5 nM; Kd (HLA-A*23:01; source organism: Variola virus): ≥ 77700 nM; Kd (HLA-A*26:01 [2]; source organism: Variola virus): ≥ 77900 nM; Kd (HLA-A*24:02; source organism: Variola virus): ≥ 77500 nM; Kd (HLA-A*29:02; source organism: Variola virus): ≥ 38000 nM; Kd (HLA-A*30:02; source organism: Variola virus): 11900 nM
RPRWLDARVY	–	–	–	–	–	–	Kd (HLA-B*07:02; source organism: Dengue virus 4 Dominica/814669/1981): 13.7 nM
RPTFAAGLL	–	–	–	–	–	–	Kd (HLA-B*07:02; [8]): 1.09 nM
SSQGSEYDY	576 nM	≥ 77800 nM	≥ 102000 nM	≥ 77600 nM	294 nM	68.9 nM	–
TPSMAMRCVG	–	–	–	–	–	–	Kd (HLA-B*07:02; [13]): 405 nM
VEDYGFGVF	–	–	–	–	–	–	Kd (HLA-B*40:01; [8]): 315 nM
VEKVETWAL	–	–	–	–	–	–	Kd (HLA-B*40:01; [9]): 14.9 nM
VWTLMNVITL	2720 nM	62.2 nM	1500 nM	188 nM	72.1 nM	19400 nM	–
WPLNEGIMAI	–	–	–	–	–	–	Kd (HLA-B*51:01; [13]): 186 nM
YQCGHYTHI	≥ 20100 nM	312 nM	13300 nM	116 nM	≥ 25000 nM	10900 nM	Kd (HLA-A*02:06): 9.23 nM; Kd (HLA-A*02:02): 72.1 nM; Kd (HLA-A*02:03; [5]): 14.9 nM
